From the supplement of paper PMC11780869

Test system: Bacillus subtilis
Experiment: cleaved RNA product abundance (RNA/gDNA barcode ratio) relative to median wild-type variant (ratio to wild type); higher = more accumulation of the downstream cleavage product
Summary of the method: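 B. subtilis strains with chromosomally integrated reporter mRNAs (truncated aprE or tetM) holding barcoded, mutagenized RNase Y cleavage-site windows grew in LB at 37°C from OD600 0.0003 to 0.3. Cleaved product abundance is each construct's RNA:gDNA barcode ratio, scaled to the median construct with the unmutated site. It came from sequencing barcodes of gel-selected, reverse-transcribed cleaved RNA and of genomic DNA.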

[1] = experiment (reporter, strain, medium): exp 8a: truncated aprE reporter, strain BJT201 with 2% xylose (RNase J1 expressed), cleavage site: glnRA (positions -5 to +31 mutated)
[2] = experiment (reporter, strain, medium): exp 4a: truncated aprE reporter, strain BJT201 with 2% xylose (RNase J1 expressed), cleavage site: cggR-gapA (positions -7 to +36 mutated)
[3] = experiment (reporter, strain, medium): exp 2b: truncated aprE reporter, strain BJT200, cleavage site: cggR-gapA (positions -7 to +36 mutated)

Sequence | cleaved RNA product abundance [1] | cleaved RNA product abundance [2] | cleaved RNA product abundance [3]
CGACATGTCCCGCTTCTTTCATTAATCCGTTAGCAACTGTTATGCTATATAGATTTACCTTTTAAGAGGAGGAAT | 1.29 | – | –
ACAGACGAAGGAGCCGCAAAGAAATTATTAAGGGATGACTAATCTCTCAATATAAATATCTCTCACTTATTTAAA | – | 0.582 | –
CGACATGTCCCGCTTCTTTCATTAATCTTTTAGCAACTGTTTTGCTATATACATTTACCTTTTAAGAGGAGGAAT | 1.14 | – | –
ACAGACGAAGGAGCCGCAAAGAAGTTATTAAGGTACGAATAATCCCTCAATATAAATATCTCTCACTTATTTAAA | – | 0.106 | 0.0971
ACAGACGAAGGAGCCGCAAAAAAGGTATTAAGGGATGAATAATCCCTCAATATAAATATCTCTCACTTATTTAAA | – | 0.879 | 1.78
ACAGACGAAGGAGCCGCAAACAAGTTATTAAGGGCTGAATAATCCCTCAATATAAATATCTCTCACTTATTTAAA | – | 0.471 | –
ACAGACGAAGGAGCCGCATAGAAGTTATTAAGGGATAAATAATCCCTCAATATAAATATCTCTCACTTATTTAAA | – | 0.861 | 1.03
ACAGACGAAGGAGCCGCAACGAAGTTATTAAGGAATGAATAATCCCTCAATATAAATATCTCTCACTTATTTAAA | – | 0.126 | 0.116
ACAGACGAAGGAGCCGCAAAGAACTTATTAAGCGATGAATAATCCCTCAATATAAATATCTCTCACTTATTTAAA | – | 0.157 | 0.0844
ACAGACGAAGGAGCCGCAAAGAAGTTATTAAAGGATGAATAATCCCTCAATATAAATACCTCTCACTTATTTAAA | – | 0.13 | –
CGACATGTCCCGCTTCTTTCATTAATCCGTTAGCAACTGTTTTGCTATATAAATTTACCTTTTAAGAGGAGGAAT | 0.938 | – | –
CGACATGTCCCGCTTCTTTCATTAATCCTTTAGCAACTGTTTTGCTATATACATTAACCTTTTAAGAGGAGGAAT | 0.846 | – | –
ACAGACGAAGGAGCCGCAAAGAAGTTATTAATGGATGAATAATCTCTCAATATAAATATCTCTCACTTATTTAAA | – | 0.14 | 0.108
ACAGACGAAGGAGCCGCAAAGAAATTATGAAGGGATGAATAATCCCTCAATATAAATATCTCTCACTTATTTAAA | – | 0.386 | –
ACAGACGAAGGAGCCGCAAAGAAGTGATTTAGGGATGAATAATCCCTCAATATAAATATCTCTCACTTATTTAAA | – | 0.386 | –
CGACATGTCCCGCTTCTTTCATTAATCCGTTAGCAACTGTATTACTATATACATTTACCTTTTAAGAGGAGGAAT | 0.835 | – | –
ACAGACGAAGGAGCCGCAAAGAAGTTAGTAAGCGATGAATAATCCCTCAATATAAATATCTCTCACTTATTTAAA | – | 0.0715 | –
ACAGACGAAGGAGCCGCAAAGAAGTTATTAAGCGATGAATAATCCCTCACTATAAATATCTCTCACTTATTTAAA | – | 0.0749 | 0.0669
ACAGACGAAGGAGCCGCAAAGAAGTTATTAAGGGATGATTAATCCTTCAATATAAATATCTCTCACTTATTTAAA | – | 0.469 | 0.306
ACAGACGAAGGAGCCGCAAAGAAGTTATTAAGGTATGAATAATCCCGCAATATAAATATCTCTCACTTATTTAAA | – | 0.0533 | –
ACAGACGAAGGAGCCGCAAAGAAGTTATTATGGTATGAATAATCCCTCAATATAAATATCTCTCACTTATTTAAA | – | 0.14 | 0.0925
CGACATGTCCCGCTTCTTTCATTAATCCGTTAGCAACTGTTTTGTTATATACATATACCTTTTAAGAGGAGGAAT | 0.573 | – | –
ACAGACGAAGGAGCCGCAAAGAAGTTATTAAGGGATGACTAATACCTCAATATAAATATCTCTCACTTATTTAAA | – | 0.0872 | –
ACAGACGAAGGAGCCGCAAAGAAGTTATCAAGGGATGAAAAATCCCTCAATATAAATATCTCTCACTTATTTAAA | – | 0.272 | –
ACAGACGAAGGAGCCGCAAAGAAGTTATTAAAGGATGAATAATCCCTCCTTATAAATATCTCTCACTTATTTAAA | – | 0.0791 | –
CGACATGTCCCGCTTCTTTCATTAATACGTTAACAACTGTTTTGCTATATACATTTACCTTTTAAGAGGAGGAAT | 0.195 | – | –

Sequence | cleaved RNA product abundance [1] | cleaved RNA product abundance [2] | cleaved RNA product abundance [3]
ACAGACGAAGGAGCCGCAAAGAAGTTATTAAGCGATGAATAATCCCTCAATATAAATATTTCTCACTTATTTAAA | – | 0.171 | 0.0865
ACAGACGAAGGAGCCGCAAAGAAGTTATAAAGGCATGAATAATCCCTCAATATAAATATCTCTCACTTATTTAAA | – | 0.113 | 0.122
ACAGACGAAGGAGCCGCAAAGAAGTTATTAAAGGATGAACAATCCCTCAATATAAATATCTCTCACTTATTTAAA | – | 0.207 | 0.0976
ACAGACGAAGGAGCCGCAAAGTAGTTATTAAAGGATGAATAATCCCTCAATATAAATATCTCTCACTTATTTAAA | – | 0.208 | –
ACAGACGAAGGAGCCGCAAAGAAGTTATTAAGGGATGAATAAACCCTCAATATAAATGTCTCTCACTTATTTAAA | – | 0.39 | 0.292
ACAGACGAAGGAGCCGCAAAGAAGTTATTAAGGGATGAATAATCCCTCAATATAAATATCTCTCATTATTTAAAG | – | 1.05 | 1.06
ACAGACGAAGGAGCCGCAAAGAAGTTATTAAGCGATGAATAATACCTCAATATAAATATCTCTCACTTATTTAAA | – | 0.127 | 0.0864
ACAGACGAAGGAGCCGCAAAGAAGGTATTAAGGGATGAATAATCCCTTAATATAAATATCTCTCACTTATTTAAA | – | 0.326 | –
CGACATGTCCCGCTTCTTTCATTAATCCGTTAGCAACTGTTTTGTTATATACATTTAGCTTTTAAGAGGAGGAAT | 0.257 | – | –
ACAGACGAAGGAGCCGCAAAGAAGTTATTAAGCGATGAATAATCCCTCAATATAAATAACTCTCACTTATTTAAA | – | 0.102 | 0.114
ACAGACGAAGGAGCCGCAAAGAAGTTATTAAGGGATGCATAATCACTCAATATAAATATCTCTCACTTATTTAAA | – | 0.109 | 0.0901
ACAGACGAAGGAGCCGCAAATAAGTTATTAAGGGATGAATAATCCCTCACTATAAATATCTCTCACTTATTTAAA | – | 0.218 | 0.193
ACAGACGAAGGAGCCGCAAAGAAGTTATTAAGGTATGAATAATCCCTCAATCTAAATATCTCTCACTTATTTAAA | – | 0.0855 | –
ACAGACGAAGGAGCCGCAAAGAAGTTATTAAAGGATGAATAATCCCTCAATATAATTATCTCTCACTTATTTAAA | – | 0.161 | –
ACAGACGAAGGAGCCGCAAAGAAGTGATTAAGGGACGAATAATCCCTCAATATAAATATCTCTCACTTATTTAAA | – | 0.322 | –
ACAGACGAAGGAGCCGCAAAGAAGTTATTAAGGGATGAATAATCCCAGAATATAAATATCTCTCACTTATTTAAA | – | 0.361 | –
ACAGACGAAGGAGCCGCAAAAAAGTTATTAAGGAATGAATAATCCCTCAATATAAATATCTCTCACTTATTTAAA | – | 0.156 | 0.112
ACAGACGAAGGAGCCGCAAAGAAGTGACTAAGGGATGAATAATCCCTCAATATAAATATCTCTCACTTATTTAAA | – | 0.344 | –
ACAGACGAAGGAGCCGCAAAGAAGTTATTAAGGAATGAATAATCCCTCAATATAAAAATCTCTCACTTATTTAAA | – | 0.161 | 0.127
ACAGACGAAGGAGCCGCAAAGAAGTTATTACGGGATGAATAATGCCTCAATATAAATATCTCTCACTTATTTAAA | – | 0.128 | –
ACAGACGAAGGAGCCGCAAAGAAGTTATTAAGGGATGAATAATCCCTCAAAATAAATAGCTCTCACTTATTTAAA | – | – | 0.26
ACAGACGAAGGAGCCGCAAAAAAGTTATTAAGGGATGAATCATCCCTCAATATAAATATCTCTCACTTATTTAAA | – | 1.01 | –
ACAGACGAAGGAGCCGCAAACAAGTTATTAAGGGATTAATAATCCCTCAATATAAATATCTCTCACTTATTTAAA | – | 0.656 | 1.02
ACAGACGAAGGAGCCGCAAAGAATTTATTAAGGGATAAATAATCCCTCAATATAAATATCTCTCACTTATTTAAA | – | 0.595 | 0.767
ACAGACGAAGGAGCCGCAAAGAAGTTAATAAGGGATGAATAATCCCGCAATATAAATATCTCTCACTTATTTAAA | – | – | 0.0984
ACAGACGAAGGAGCCGCAAAGAAGTAATTAAGGGATGAATAATACCTCAATATAAATATCTCTCACTTATTTAAA | – | 0.141 | 0.115
